The numbers were not newly measured in paper PMC8573850, which cites them from elsewhere.

Values joined by “and” are separate entries in the source; they are usually repeats but may differ in a detail not shown here. Equal values may be shown once.

This data set deals with Neuropilin-1 (Homo sapiens) (UniProt O14786).
Sequence of UniProt O14786 (O14786 22-856): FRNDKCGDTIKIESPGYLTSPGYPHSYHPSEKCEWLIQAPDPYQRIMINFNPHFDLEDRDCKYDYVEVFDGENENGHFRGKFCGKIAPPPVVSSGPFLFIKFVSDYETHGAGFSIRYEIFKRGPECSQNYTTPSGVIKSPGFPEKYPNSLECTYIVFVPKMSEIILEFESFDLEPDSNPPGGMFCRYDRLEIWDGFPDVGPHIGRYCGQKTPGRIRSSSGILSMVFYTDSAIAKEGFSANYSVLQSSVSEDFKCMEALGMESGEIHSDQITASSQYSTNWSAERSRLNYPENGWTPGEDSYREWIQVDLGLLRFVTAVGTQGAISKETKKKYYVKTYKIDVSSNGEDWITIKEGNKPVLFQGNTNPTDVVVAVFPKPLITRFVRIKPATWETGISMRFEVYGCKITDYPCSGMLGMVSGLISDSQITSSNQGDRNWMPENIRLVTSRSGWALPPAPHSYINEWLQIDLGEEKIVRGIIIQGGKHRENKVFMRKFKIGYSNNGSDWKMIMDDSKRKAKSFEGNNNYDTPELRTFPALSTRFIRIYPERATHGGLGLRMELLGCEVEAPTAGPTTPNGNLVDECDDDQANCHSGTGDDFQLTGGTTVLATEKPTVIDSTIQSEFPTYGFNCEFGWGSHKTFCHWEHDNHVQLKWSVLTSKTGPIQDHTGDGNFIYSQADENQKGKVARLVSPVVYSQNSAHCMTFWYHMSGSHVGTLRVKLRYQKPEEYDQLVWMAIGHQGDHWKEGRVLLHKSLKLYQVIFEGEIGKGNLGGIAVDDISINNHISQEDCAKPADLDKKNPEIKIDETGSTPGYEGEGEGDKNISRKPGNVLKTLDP

In the case of “Spike protein CendR peptide CendR (from UniProt P0DTC2)”, the Kd – broadly, the equilibrium constant for the complex coming apart – is 13 µM and 20 µM.
